Data set [1] concerns the target T1, human lens ALDH1A1 (Homo sapiens, UniProt P00352).
T1 sequence (P00352 1-501): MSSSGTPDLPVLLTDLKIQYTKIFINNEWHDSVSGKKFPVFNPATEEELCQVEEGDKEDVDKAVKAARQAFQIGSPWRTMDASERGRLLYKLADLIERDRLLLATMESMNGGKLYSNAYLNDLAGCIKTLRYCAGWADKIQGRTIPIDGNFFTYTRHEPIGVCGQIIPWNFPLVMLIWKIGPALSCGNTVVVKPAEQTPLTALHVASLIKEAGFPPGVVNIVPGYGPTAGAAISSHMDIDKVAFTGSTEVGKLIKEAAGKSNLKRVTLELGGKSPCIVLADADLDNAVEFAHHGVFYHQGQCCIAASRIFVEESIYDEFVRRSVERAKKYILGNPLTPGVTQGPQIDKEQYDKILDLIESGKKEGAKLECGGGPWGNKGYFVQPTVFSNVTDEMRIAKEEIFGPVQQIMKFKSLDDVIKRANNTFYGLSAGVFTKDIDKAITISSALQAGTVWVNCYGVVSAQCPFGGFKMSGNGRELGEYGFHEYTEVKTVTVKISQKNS
Type of data set: biochemical.

Data set [2] concerns the target T1, human lens ALDH1A1. The data set is classed as biochemical. This is another data set of the same source.
Substrate in data set [3]: NC(=O)c1ccc[n+]([C@@H]2O[C@H](COP(=O)([O-])OP(=O)(O)OC[C@H]3O[C@@H](n4cnc5c(N)ncnc54)[C@H](O)[C@@H]3O)[C@@H](O)[C@H]2O)c1
Description: purified protein. Type of data set: biochemical, Homo sapiens. The note with it: may interfere with NO binding to catalytic site; varied: cofactor.

Substrate in data set [4]: CCC=O
Description: purified protein. The data set is classed as biochemical, Homo sapiens. The following applies: NAD+.

Substrate in data set [5]: O=CCC=O
Description: purified protein. The data set is classed as biochemical, Homo sapiens. The note with it: NAD+ probably both the substrates fit the active site well.

Substrate in data set [6]: O=Cc1ccccc1
Nature of the data set: purified protein. The data set is classed as biochemical, Homo sapiens. The note with it: NAD+.

Substrate in data set [7]: CCCCCC(O)C=CC=O
Nature of the data set: purified protein. The following applies: NAD+ probably both the substrates fit the active site well.

In turn, `CC(C)=CCCC(C)=CC=O` [citral, 3,7-dimethyl-2,6-octadienal] yielded an IC50 in data set [1] of 55 µM.

As for `CC/C(=C(/CC)c1ccc(O)cc1)c1ccc(O)cc1` [diethylstilbestrol], a half-maximal response in data set [2] (EC50) required 11.3 µM.

B1: human lens ALDH1A1 (Homo sapiens) (protein)
chain: T1 sequence (P00352 1-501)
In the case of B1, the Km in data set [3] was 59.4 ± 2.4 µM; in data set [4], 121.4 ± 6.7 µM; in data set [5] it was 3.5 ± 0.6 µM; in data set [6] it was 143.2 ± 6.4 µM; in data set [7], 4.8 ± 0.12 µM. Moreover, the Vmax worked out at 0.15 µmol/min/mg in data set [3]; 0.445 µmol/min/mg in data set [4]; 0.382 µmol/min/mg in data set [5]; 0.75 µmol/min/mg in data set [6]; 0.135 ± 0.0152 µmol/min/mg in data set [7].

Source of the values: publication PMC5645793 (Journal of toxicology and environmental health. Part A, 2009).
